Test results published in patent US20020176866A1.
Non-standard residues stand in square brackets, D forms with d. No end group written: not given here.

What was measured:
[1] = molecular target: rat MHC class II (I-A or I-E) on splenic adherent cells (antigen presenting cells) (rat); experiment: competition with 10 µM biotin-labeled MBP native peptide on rat splenic adherent cells, flow cytometry; competitor at 100 µM
[2] = molecular target: rat MHC class II (I-A or I-E) on splenic adherent cells (antigen presenting cells) (rat); experiment: competition with 10 µM biotin-labeled MBP (87-99) on rat splenic adherent cells, flow cytometry; competitor at 200 µM

percent inhibition of binding at 100 µM [1] [%] | percent inhibition of binding at 200 µM [2] [%] | Binder
25 | – | D[dA]NPVVHAFANIVTPRT [a83, A89, A91 peptide analog of human myelin basic protein]
– | 67.6 | VV[dH]FFANIVTPRT [h88/A91, peptide analog of MBP (87-99) with D-histidine at residue 88 and alanine at residue 91]
40 | 68.4 | VVHFFKNIVTPRT [MBP (87-99), human myelin basic protein residues 87-99]
